Measurements published in PMC7116876, “Mechanistic Insights into Regulation of the ALC1 Remodeler by the Nucleosome Acidic Patch” (Cell reports, 2020).

Experiments:
[1] = system: individual WT/WT nucleosomes; assay: smFRET remodeling directionality, WT/WT nucleosomes; type: biochemical, Xenopus laevis histones; settings: 2.5 μM remodeler, 1 mM ATP, n > 100 traces
From the text: (§1) The DNA constructs used in the nucleosome assembly for single-molecule and ensemble remodeling studies comprised the Widom 601 nucleosome positioning sequence ([Lowary and Widom, 1998]) as well as either 3 bp or 12 bp of linker DNA on one side and 78 bp on the other side (for the single-molecule remodeling construct) or 63 bp of linker DNA on one side and no linker DNA on the other side (for the ensemble remodeling construct). All constructs were 5’-labeled with Cy5 on the short linker end. The constructs for single-molecule experiments additionally featured a biotin on the long linker end. […] The DNA constructs for the assembly of nucleosomes used in fluorescence anisotropy experiments and ATPase assays comprised the Widom 601 positioning sequence without additional linker DNA (for the fluorescence anisotropy construct) or 63 bp of linker DNA on one side and no linker DNA on the other side (for the ATPase assay construct). […]
(§2) Using the DNA constructs for single-molecule FRET described above, we first generated oriented hexasomes with H2A-Cy3 on the short linker side using a salt dialysis method as described previously ([Dyer et al., 2004]; [Levendosky et al., 2016]; [Sabantsev et al., 2019]). […] Data were analyzed using custom scripts for the Fiji distribution of ImageJ ([Schindelin et al., 2012]; [Schneider et al., 2012]), IDL, and MATLAB ([Sabantsev et al., 2019]). […]

[2] = system: ALC1-catalyzed remodeling of WT/WT nucleosomes; assay: Ensemble FRET nucleosome remodeling, WT/WT nucleosomes; type: biochemical, Homo sapiens ALC1; Xenopus laevis histones; settings: WT/WT end-positioned nucleosomes, saturating remodeler and ATP
From the text: (§3) cDNAs for ALC1 and PARP1 were of Homo sapiens origin. Histone proteins (recombinantly expressed in E. coli) were of Xenopus laevis origin. Cell lines as well as growth conditions are described in the Method Details.
(§4) Oligonucleotides used in this study were ordered from IDT (see Table S3). The ALC1^fl (16-879) construct contains the human ALC1 sequence and a 6xHis-tag, as previously published ([Lehmann et al., 2017]). All point mutations were generated by PCR-based site-directed mutagenesis. The plasmid for human PARP1 (1-1014) with an N-terminal 6xHis-tag was a kind gift from John M. Pascal ([Langelier et al., 2017]).
as §1, with “construct).” for “construct). All constructs were 5’-labeled with Cy5 on the short linker end. The constructs for single-molecule experiments additionally featured a biotin on the long linker end.”
Nucleosome ensemble remodeling kinetics were measured by monitoring the Cy5 (under 620 nm and 520 nm excitation) and Cy3 (under 520 nm excitation) fluorescence emission signals of a solution of FRET-labeled nucleosomes using a Spark (Tecan) or CLARIOstar (BMG Labtech) multimode microplate reader. […] Reaction kinetics were analyzed assuming a standard Michaelis-Menten mechanism.
(§5) For fluorescence anisotropy binding experiments, the reported values represent the mean ± SEM from 3 independent experiments. […] For ensemble nucleosome remodeling time courses, each experimental condition was recorded in 3 independent experiments, and representative remodeling time courses are shown. […]

[3] = system: ALC1 ATPase with 145 bp dsDNA; assay: DNA-stimulated ATPase activity; type: biochemical, Homo sapiens ALC1; settings: 1 μM ALC1, 20 μM or 50 μM 145 bp dsDNA, 1 mM ATP; N = 3 independent experiments
Method: ATPase activity was measured using a coupled assay that measures ADP production as described previously, ([Willhoft et al., 2016]). Final concentrations of 0.45 mM NADH, 1.0 mM phosphoenolpyruvate, 54 U/ml pyruvate kinase (Sigma), and 78 U/ml lactic dehydrogenase (Sigma) were used. For measurements of nucleosome-stimulated ATPase activity, reactions contained 20 μM ALC1,2 μM WT/WT nucleosomes, and 1 mM ATP in a volume of 30 μl. Fluorescence was monitored (excitation wavelength: 340 nm; emission wavelength: 430 nm) at 37°C using a CLARIOstar microplate reader (BMG Labtech) and black low-volume 384-well microplates (Corning). For measurements of DNA-stimulated ATPase activity, the absorbance was monitored at 340 nm for reactions containing a final of 1 μM ALC1 and either 20 μM or 50 μM 145 bp nucleosomal double-stranded (ds) DNA in 100 μl. Reaction rates were determined using mean linear slopes. […]
as §5

[4] = system: individual WT/APM nucleosomes; assay: smFRET remodeling directionality, WT/APM nucleosomes; type: biochemical, Xenopus laevis histones; settings: 2.5 μM remodeler, 1 mM ATP, n > 100 traces
From the text: as §1, §2

[5] = system: ALC1-catalyzed remodeling of APM/APM nucleosomes; assay: Ensemble FRET nucleosome remodeling, APM/APM versus WT/WT nucleosomes; type: biochemical, Homo sapiens ALC1; Xenopus laevis histones; settings: 20 μM remodeler, 10 nM nucleosomes, 1.5 mM ATP; n = 3 independent experiments
From the text: as §3, §4
as §1, with “construct).” for “construct). All constructs were 5’-labeled with Cy5 on the short linker end. The constructs for single-molecule experiments additionally featured a biotin on the long linker end.”

[6] = system: ALC1 ATPase with WT/WT nucleosomes; assay: Nucleosome-stimulated ATPase activity; type: biochemical, Homo sapiens ALC1; Xenopus laevis histones; settings: 20 μM ALC1 with 2 μM WT/WT nucleosomes versus 1 μM ALC1 with dsDNA, 1 mM ATP
Method: ATPase activity was measured using a coupled assay that measures ADP production as described previously, ([Willhoft et al., 2016]). Final concentrations of 0.45 mM NADH, 1.0 mM phosphoenolpyruvate, 54 U/ml pyruvate kinase (Sigma), and 78 U/ml lactic dehydrogenase (Sigma) were used. For measurements of nucleosome-stimulated ATPase activity, reactions contained 20 μM ALC1,2 μM WT/WT nucleosomes, and 1 mM ATP in a volume of 30 μl. Fluorescence was monitored (excitation wavelength: 340 nm; emission wavelength: 430 nm) at 37°C using a CLARIOstar microplate reader (BMG Labtech) and black low-volume 384-well microplates (Corning). For measurements of DNA-stimulated ATPase activity, the absorbance was monitored at 340 nm for reactions containing a final of 1 μM ALC1 and either 20 μM or 50 μM 145 bp nucleosomal double-stranded (ds) DNA in 100 μl. Reaction rates were determined using mean linear slopes. For measurements of nucleosome-stimulated ATPase activity, we estimated Vmax for both ALC1^fl R860W and ALC1^fl R611A/S612A/R860W using the Michaelis-Menten equation and the Km values that we obtained from nucleosome sliding kinetics in Figure 3B.
For fluorescence anisotropy binding experiments, the reported values represent the mean ± SEM from 3 independent experiments. For ATPase activity measurements, the reported values represent the mean ± standard deviation from 3 independent experiments. For ensemble nucleosome remodeling time courses, each experimental condition was recorded in 3 independent experiments, and representative remodeling time courses are shown. Relative remodeling rates derived from these curves represent the mean ± standard deviation from 3 independent experiments. For smFRET experiments, values are reported as mean ± SEM from several experiments as specified in the corresponding figure legends. For association kinetics from live-cell imaging, error bars represent SEM from N ≥ 131 traces from 3 independent experiments.

B1: ALC1^fl R860W: constitutively active mutant of ALC1 (protein)
chain: FLLRLHTEGRAEAARVQEQDLRQWGLTGIHLRSYQLEGVNWLAQRFHCQNGCILGDEMGLGKTCQTIALFIYLAGRLNDEGPFLILCPLSVLSNWKEEMQRFAPGLSCVTYAGDKEERACLQQDLKQESRFHVLLTTYEICLKDASFLKSFPWSVLVVDEAHRLKNQSSLLHKTLSEFSVVFSLLLTGTPIQNSLQELYSLLSFVEPDLFSKEEVGDFIQRYQDIEKESESASELHKLLQPFLLRRVKAEVATELPKKTEVVIYHGMSALQKKYYKAILMKDLDAFENETAKKVKLQNILSQLRKCVDHPYLFDGVEPEPFEVGDHLTEASGKLHLLDKLLAFLYSGGHRVLLFSQMTQMLDILQDYMDYRGYSYERVDGSVRGEERHLAIKNFGQQPIFVFLLSTRAGGVGMNLTAADTVIFVDSDFNPQNDLQAAARAHRIGQNKSVKVIRLIGRDTVEEIVYRKAASKLQLTNMIIEGGHFTLGAQKPAADADLQLSEILKFGLDKLLASEGSTMDEIDLESILGETKDGQWVSDALPAAEGGSRDQEEGKNHMYLFEGKDYSKEPSKEDRKSFEQLVNLQKTLLEKASQEGRSLRNKGSVLIPGLVEGSTKRKRVLSPEELEDRQKKRQEAAAKRRRLIEEKKRQKEEAEHKKKMAWWESNNYQSFCLPSEESEPEDLENGEESSAELDYQDPDATSLKYVSGDVTHPQAGAEDALIVHCVDDSGHWGRGGLFTALEKRSAEPRKIYELAGKMKDLSLGGVLLFPVDDKESRNKGQDLLALIVAQHRDRSNVLSGIKMAALEEGLKKIFLAAKKKKASVHLPRIGHATKGFNWYGTERLIWKHLAARGIPTYIYYFPRSK
modifications: left off: His6, end not stated, state not stated
Question: How did the “fraction of single-nucleosome remodeling traces with initial decrease in FRET (toward longer linker DNA)” value [1] turn out when B1 was run?
Answer: The value was 62%.

Question: And the “fraction of traces with opposite directionality (toward shorter linker DNA)” value [1]?
Answer: The value was 38%.

Question: What about the “FRET change upon addition of remodeler and ATP” value [2] of the same molecule?
Answer: The value was “FRET decreased”.

Question: What about the “DNA-stimulated ATPase activity, ALC1^fl R860W versus ALC1^fl R611A/S612A/R860W” value [3] of the same molecule?
Answer: Its value is “essentially identical DNA-stimulated ATPase activity”.

Question: What about the “fraction of WT/APM nucleosomes moved toward the shorter linker end” value [4] of the same molecule?
Answer: The value was 89%.

Question: What about the “fold decrease in remodeling rate, APM/APM versus WT/WT nucleosomes” value [5] of the same molecule?
Answer: Its value is ~ 13.7 fold.

Question: What about the “nucleosome-stimulated ATPase activity, fold higher than DNA-stimulated ATPase activity” value [6] of the same molecule?
Answer: The value was ~ 1.6 fold.
